Results from patent publication US6787341B2, “Pharmacological targeting of bacterial DNA ligase for treatment and prevention of bacterial infections” (priority 2001, dated 2004).
Residue numbers refer to the chain shown, from its start. Names may count otherwise.

B1: Y22A: E. coli LigA with Tyr22 replaced by alanine (protein, UniProt P15042 1-671, looked up, variant Y22A)
DNA ligase: MESIEQQLTELRTTLRHHEYLAHVMDAPEIPDAEYDRLMRELRELETKHPELITPDSPTQRVGAAPLAAFSQIRHEVPMLSLDNVFDEESFLAFNKRVQDRLKNNEKVTWCCELKLDGLAVSILYENGVLVSAATRGDGTTGEDITSNVRTIRAIPLKLHGENIPARLEVRGEVFLPQAGFEKINEDARRTGGKVFANPRNAAAGSLRQLDPRITAKRPLTFFCYGVGVLEGGELPDTHLGRLLQFKKWGLPVSDRVTLCESAEEVLAFYHKVEEDRPTLGFDIDGVVIKVNSLAQQEQLGFVARAPRWAVAFKFPAQEQMTFVRDVEFQVGRTGAITPVARLEPVHVAGVLVSNATLHNADEIERLGLRIGDKVVIRRAGDVIPQVVNVVLSERPEDTREVVFPTHCPVCGSDVERVEGEAVARCTGGLICGAQRKESLKHFVSRRAMDVDGMGDKIIDQLVEKEYVHTPADLFKLTAGKLTGLERMGPKSAQNVVNALEKAKETTFARFLYALGIREVGEATAAGLAAYFGTLEALEAASIEELQKVPDVGIVVASHVHNFFAEESNRNVISELLAEGVHWPAPIVINAEEIDSPFAGKTVVLTGSLSQMSRDDAKARLVELGAKVAGSVSKKTDLVIAGEAAGSKLAKAQELGIEVIDEAEMLRLLGS
B2: D36A: E. coli LigA with Asp36 replaced by alanine (protein, UniProt P15042 1-671, looked up, variant D36A)
DNA ligase: B1 DNA ligase with A22Y, D36A
B3: D32A: E. coli LigA with Asp32 replaced by alanine (protein, UniProt P15042 1-671, looked up, variant D32A)
DNA ligase: B1 DNA ligase with A22Y, D32A
B4: H23A: E. coli LigA with His23 replaced by alanine (protein, UniProt P15042 1-671, looked up, variant H23A)
DNA ligase: B1 DNA ligase with A22Y, H23A
B5: E10A: E. coli LigA with Glu10 replaced by alanine in domain Ia (protein, UniProt P15042 1-671, looked up, variant E10A)
DNA ligase: B1 DNA ligase with E10A, A22Y
B6: Y35A: E. coli LigA with Tyr35 replaced by alanine (protein, UniProt P15042 1-671, looked up, variant Y35A)
DNA ligase: B1 DNA ligase with A22Y, Y35A
B7: NΔ38: N-terminal deletion of E. coli DNA ligase LigA eliminating part of domain Ia (protein, UniProt P15042 39-671, looked up, fragment)
chain: MRELRELETKHPELITPDSPTQRVGAAPLAAFSQIRHEVPMLSLDNVFDEESFLAFNKRVQDRLKNNEKVTWCCELKLDGLAVSILYENGVLVSAATRGDGTTGEDITSNVRTIRAIPLKLHGENIPARLEVRGEVFLPQAGFEKINEDARRTGGKVFANPRNAAAGSLRQLDPRITAKRPLTFFCYGVGVLEGGELPDTHLGRLLQFKKWGLPVSDRVTLCESAEEVLAFYHKVEEDRPTLGFDIDGVVIKVNSLAQQEQLGFVARAPRWAVAFKFPAQEQMTFVRDVEFQVGRTGAITPVARLEPVHVAGVLVSNATLHNADEIERLGLRIGDKVVIRRAGDVIPQVVNVVLSERPEDTREVVFPTHCPVCGSDVERVEGEAVARCTGGLICGAQRKESLKHFVSRRAMDVDGMGDKIIDQLVEKEYVHTPADLFKLTAGKLTGLERMGPKSAQNVVNALEKAKETTFARFLYALGIREVGEATAAGLAAYFGTLEALEAASIEELQKVPDVGIVVASHVHNFFAEESNRNVISELLAEGVHWPAPIVINAEEIDSPFAGKTVVLTGSLSQMSRDDAKARLVELGAKVAGSVSKKTDLVIAGEAAGSKLAKAQELGIEVIDEAEMLRLLGS
B8: NΔ78: N-terminal deletion of E. coli DNA ligase LigA eliminating domain Ia (protein, UniProt P15042 79-671, looked up, fragment)
chain: MLSLDNVFDEESFLAFNKRVQDRLKNNEKVTWCCELKLDGLAVSILYENGVLVSAATRGDGTTGEDITSNVRTIRAIPLKLHGENIPARLEVRGEVFLPQAGFEKINEDARRTGGKVFANPRNAAAGSLRQLDPRITAKRPLTFFCYGVGVLEGGELPDTHLGRLLQFKKWGLPVSDRVTLCESAEEVLAFYHKVEEDRPTLGFDIDGVVIKVNSLAQQEQLGFVARAPRWAVAFKFPAQEQMTFVRDVEFQVGRTGAITPVARLEPVHVAGVLVSNATLHNADEIERLGLRIGDKVVIRRAGDVIPQVVNVVLSERPEDTREVVFPTHCPVCGSDVERVEGEAVARCTGGLICGAQRKESLKHFVSRRAMDVDGMGDKIIDQLVEKEYVHTPADLFKLTAGKLTGLERMGPKSAQNVVNALEKAKETTFARFLYALGIREVGEATAAGLAAYFGTLEALEAASIEELQKVPDVGIVVASHVHNFFAEESNRNVISELLAEGVHWPAPIVINAEEIDSPFAGKTVVLTGSLSQMSRDDAKARLVELGAKVAGSVSKKTDLVIAGEAAGSKLAKAQELGIEVIDEAEMLRLLGS

System: E. coli LigA
Format: biochemical
Details: not given
Description: (§1) FIG. 12A: Aliquots (5 μg) of wild-type (WT) E. coli ligase, N-terminal deletion mutants NΔ38 and NΔ78, and the full-length ligase proteins containing the indicated alanine mutations in domain Ia were analyzed by SDS-PAGE. A Coomassie blue-stained gel is shown. FIG. 12B: Ligase adenylation reaction mixtures (20 μl) containing 50 mM Tris-HCl (pH 7.5), 5 mM DTT, 5 mM MgCl2, 1 μM [α-^32P]NAD^+ and 8 pmol of WT ligase, NΔ38, NΔ78, or the indicated alanine mutants were incubated for 5 min at 37° C. The reaction products were resolved by SDS-PAGE and visualized by autoradiography. FIG. 12C: Nick joining reaction mixtures (20 μl) containing 50 mM Tris-HCl (pH 7.5), 10 mM (NH4)2SO4, 5 mM DTT, 5 mM MgCl2, 20 μM NAD^+, 1 pmol of ^32P-labeled nicked DNA, and increasing amounts of WT ligase or the indicated alanine mutants were incubated for 10 min at 22° C. The extents of ligation are plotted as a function of input protein.
To further probe the role of domain Ia in NAD^+ recognition and nucleotidyl transfer, single alanine substitutions were introduced at six positions in the Ia domain of E. coli LigA. The six mutated Eco ligase residues—Glu10, Tyr22, His23, Asp32, Tyr35, and Asp36—correspond to the six residues that were subjected to alanine scanning mutagenesis in AmEPV ligase (FIG. 11). […] The conserved positions are denoted by shaded boxes in FIG. 11. The Eco ligase mutants E10A, Y22A, H23A, D32A, Y35A, and D36A were produced in E. coli and purified by Ni-agarose chromatography in parallel with wild-type ligase (FIG. 12A).
To evaluate the roles of charge, hydrogen bonding potential, and steric constraints in the functions of the domain Ia residues implicated in the step 1 reaction with NAD^+, the effects of conservative substitutions were tested. Tyr22 and Tyr35 were replaced by Phe and Ser, His23 was changed to Tyr, and Asp32 and Asp36 were mutated to Glu and Asn. The recombinant mutant ligases were purified from soluble bacterial extracts by Ni-agarose chromatography (FIG. 15A). The specific activity of each mutant was determined under steady-state conditions by protein titration and normalized to the specific activity of wild-type ligase.
In the case of B1, the “nick ligation (qualitative)” value is reported as “virtually inert”.
For B2, the “nick ligation (qualitative)” value was “virtually inert”.
With B3 the “nick ligation (qualitative)” value was “virtually inert”.

Same assay, conditions: specific activity by protein titration under steady-state conditions, normalized to wild-type ligase
For B4, the “Nick Joining Activity (% of WT)” value was 10 % of WT.
For B5, the “Nick Joining Activity (% of WT)” value was 90 % of WT.
For B1, the “Nick Joining Activity (% of WT)” value was 0.1 % of WT.
With B2 the “Nick Joining Activity (% of WT)” value was 0.2 % of WT.
With B6 the “Nick Joining Activity (% of WT)” value was 2 % of WT.
With B3 the “Nick Joining Activity (% of WT)” value was 0.2 % of WT.

System: E. coli LigA
Format: biochemical
Details: not given
Remark: another data set of the same source
Description: (§2) Reaction mixtures containing 1 pmol of ^32P-labeled nicked DNA-adenylate (AppDNA) and either 8 pmol of wild-type (WT) E. coli ligase, deletion mutants NΔ38 and NΔ78, or the full-length ligase proteins containing the indicated alanine mutations in domain Ia were incubated for 60 min at 22° C. The reaction products were resolved by denaturing PAGE. An autoradiograph of the gel is shown. Control reaction mixtures containing either ^32P-labeled nicked DNA-adenylate (AppDNA) or nicked DNA (pDNA) substrates and no ligase are shown in lanes -. The positions of the pDNA, AppDNA, and ligated 36-mer DNA strands are indicated by arrows on the right. The position of the radiolabeled phosphate of AppDNA is denoted by •. The nicked DNA-adenylate substrate used in the ligation reactions is illustrated at the bottom.
(§3) The nicked DNA-adenylate substrate is illustrated in FIG. 13. The DNA-adenylate ligation reaction mixtures (20 μl) contained 50 mM Tris-HCl (pH 7.5), 5 mM DTT, 5 mM MgCl2, 200 fmol of nicked DNA-adenylate substrate, 2 pmol of wild-type or mutant EcoLigA proteins as specified were incubated at 22° C. The sealing reactions were initiated by adding ligase. Aliquots (20 μl) were withdrawn at the times specified and quenched immediately with EDTA and formamide. The products were resolved by denaturing PAGE and the extents of ligation were determined by scanning the gel with a phosphorimager. The extent of strand joining is plotted as a function of reaction time.
(§4) The third step of the ligation pathway entails attack of the 3′ OH of the nick on the 5′ PO4 of the DNA-adenylate to form a phosphodiester and release AMP. Step 3 of the ligation reaction was assayed using a pre-adenylated nicked DNA substrate labeled with ^32P on the 5′ PO4 of the DNA-adenylate strand (FIG. 13).
In the case of B7, the “effect on rate or extent (yield) of phosphodiester formation at a pre-adenylated nick” value (from here on “effect on rate or extent (yield)”) is reported as “no effect”.
For B1, the “effect on rate or extent (yield)” value was “no effect”.
For B2, the “effect on rate or extent (yield)” value was “no effect”.

Same assay, conditions: qualitative, magnesium, no added NAD+
With B8 the “phosphodiester formation at pre-adenylated nick” value was “capable of forming a phosphodiester bond”.
In the case of B7, the “phosphodiester formation at pre-adenylated nick” value is reported as “capable of forming a phosphodiester bond”.
For B4, the “phosphodiester formation at pre-adenylated nick” value was “catalytically active”.
In the case of B5, the “phosphodiester formation at pre-adenylated nick” value is reported as “catalytically active”.
For B1, the “phosphodiester formation at pre-adenylated nick” value was “catalytically active”.
For B2, the “phosphodiester formation at pre-adenylated nick” value was “catalytically active”.
With B6 the “phosphodiester formation at pre-adenylated nick” value was “catalytically active”.
For B3, the “phosphodiester formation at pre-adenylated nick” value was “catalytically active”.

Target: E. coli LigA (Escherichia coli, UniProt P15042)
Format: biochemical
Details: not given
Description: as §2, §3, §4
With B8 the “effect on the rate of approach to the endpoint of step 3 reaction” value was 2 fold.

System: E. coli LigA
Details: reference 19; cited from earlier work
In the case of B8, the “nick joining activity (prior studies)” value is listed as “complete loss”.
For B7, the “nick joining activity (prior studies)” value is listed as “complete loss”.

System: E. coli LigA
Format: biochemical
Details: 1 μM [32P-AMP]NAD+, 15-120 s
Description: as §1
FIG. 15A: Aliquots (5 μg) of wild-type (WT) E. coli ligase and proteins containing the indicated mutations in domain Ia were analyzed by SDS-PAGE. The Coomassie blue-stained gel is shown. The positions and sizes (in kDa) of marker proteins are indicated on the left. FIG. 15B: Ligase adenylation reaction mixtures (20 μl) containing 50 mM Tris-HCl (pH 7.5), 5 mM DTT, 5 mM MgCl2, 1 μM [α-^32P]NAD^+ and 8 pmol of WT ligase or the indicated mutants were incubated for 5 min at 37° C. The reaction products were resolved by SDS-PAGE and visualized by autoradiography.
Reaction mixtures containing (per 20 μl) 50 mM Tris-HCl (pH 7.5), 5 mM DTT, 5 mM MgCl2, 1 μM [^32P-AMP]NAD^+ and 8 pmol of ligase were incubated at 22° C. Aliquots (20 μl) were withdrawn at 15, 30, 60 and 120 s and then quenched immediately with SDS. The products were analyzed by SDS-PAGE. Formation of the ligase-[^32P]AMP adduct is plotted as a function of time.
The first step in DNA ligation involves formation of a covalent enzyme-adenylate intermediate.
In the case of B4, the “rate of ligase adenylation (kinetic pattern)” value is reported as “reacted slowly”.

Same assay, conditions: qualitative
For B8, the “ligase adenylation (ligase-AMP formation) with NAD+” value (shortened to “ligase adenylation … with NAD+”) was “inert”.
For B7, the “ligase adenylation … with NAD+” value was “inert”.
For B4, the “ligase adenylation … with NAD+” value was “less active”.
In the case of B5, the “ligase adenylation … with NAD+” value is reported as “did not affect”.
In the case of B1, the “ligase adenylation … with NAD+” value is reported as “virtually inert”.
For B2, the “ligase adenylation … with NAD+” value was “virtually inert”.
In the case of B6, the “ligase adenylation … with NAD+” value is reported as “less active”.
For B3, the “ligase adenylation … with NAD+” value was “virtually inert”.
